From publication PMC12516185

Molecular target: Zea mays pullulanase1 (ZPU1), from residue 80, GAL4 fusion (maize (Zea mays L.)) (UniProt O81638)

## maize isoamylase1 (ISA1), mature protein from residue 50, GAL4 fusion (from UniProt O22637 50-789) (enzyme)
  Red Pullulan hydrolysis (ZPU1 activity) in total soluble extracts of yeast strain 830 (ISA1 and ZPU1) compared with strain 808 (ZPU1 alone): 1.7 fold
